From article PMC2988884 (Nature structural & molecular biology, 2010)

B4: Trs130 (natural protein, S. cerevisiae (endogenous in yeast), UniProt Q03660 1-1102, looked up)
chain: MDKEIYCGSVPVSYFDPFDLFESLRPEFQQILPLDNIHWKAFDGTVRTVNRLPIELIPEGRGEADKSNDEQPFIRFLIVNCISIDQYRAKVRPLVRQWLPNLESVSSSTGEKMIYKPIILLYANSEVVDSNLFKSVSLMEKFGKDFPHVQTLEVRSVYRSPKERQEFWNQFSQKIKASVLSIFQKRLTHLQHSLANLQKGNNFEEQLLTREKLYELYVVFNILEDASLELQKIKKEILRRNMNMPDGKLQVPFESSSKSDESLGSIIIEGTLDKFQLHKYFFIRRLRLLKLEDQTLTAFVGAFQLIKNFIESISIEYRKSVRLLEFKHYFITSMLSYFEFENVSNPLLCEIKAELLMLKRDNWVQGVMATSGYRLMDKNYPNSDVKYKFDLLKETFVDETVFQENFLTLTKEILSLFNKCEGKRQRIVDILSIEIGLLYYQGKKYEEAVSLFLSCYEYYTQTNWNSIGLKILQVFIDSLSHCPKLDVLQIDGESVSASAVLTNAFLNILKLCKDNDSKEIWWKKFMDLQMKNNIHLMYPLDGLFEVTLNSKVHLARANVSAIEVNLKSYGFPEDISTKTMRLSLKNMGGDVIVFGASDFLLKKGENKLILECRDIMYGEFSLLSFEIIVEGITFVKEFPENQDEFIVVPEIYCKESTKVLVKQAHNLNLGEYALELKSVQSDALESLQVEVEVQKNIGNMKNLPVSFSMDEIQARKRYNTPFENVRLEYYLLDQITAFDLIIKTSFTKKNDQGTFGETKKVRIQCYLQLSVSVEDIFKKDIFFFKFLLNSSVREEPVILYSSELSAPDTRNDYNIRGDYIATTPALITFDGNESFINCYEITANNNFDSKDIFNLKVRYNTLKEQLDCFITDAVLIEGDVEWFILFEKWKTFWELEILKKLKYDYDAFKENRIIRLLKTSIDLNKTKSKIRNLCIEKAVLDKILICLNKVSRGIAVCNTDMDEYVRNLVPKQLTVPVQLPGFEQFFHVQFEQMETSHDALHDTIATIGNSLSYTVIVENLSGQWGQDVIDDGGYIFEILSSNEWLIHGQKRCAIKEKRKEFEVHLIPLKKGYLNFPRVEITNINGKSCRVDHSNAFESILIF

Legend:
[1] = biological target: T1, Trs120 with a C-terminal TAP tag (Trs120-TAP) (S. cerevisiae (endogenous in yeast), UniProt Q04183 1-1289); assay: single-particle EM
T1 sequence (looked up): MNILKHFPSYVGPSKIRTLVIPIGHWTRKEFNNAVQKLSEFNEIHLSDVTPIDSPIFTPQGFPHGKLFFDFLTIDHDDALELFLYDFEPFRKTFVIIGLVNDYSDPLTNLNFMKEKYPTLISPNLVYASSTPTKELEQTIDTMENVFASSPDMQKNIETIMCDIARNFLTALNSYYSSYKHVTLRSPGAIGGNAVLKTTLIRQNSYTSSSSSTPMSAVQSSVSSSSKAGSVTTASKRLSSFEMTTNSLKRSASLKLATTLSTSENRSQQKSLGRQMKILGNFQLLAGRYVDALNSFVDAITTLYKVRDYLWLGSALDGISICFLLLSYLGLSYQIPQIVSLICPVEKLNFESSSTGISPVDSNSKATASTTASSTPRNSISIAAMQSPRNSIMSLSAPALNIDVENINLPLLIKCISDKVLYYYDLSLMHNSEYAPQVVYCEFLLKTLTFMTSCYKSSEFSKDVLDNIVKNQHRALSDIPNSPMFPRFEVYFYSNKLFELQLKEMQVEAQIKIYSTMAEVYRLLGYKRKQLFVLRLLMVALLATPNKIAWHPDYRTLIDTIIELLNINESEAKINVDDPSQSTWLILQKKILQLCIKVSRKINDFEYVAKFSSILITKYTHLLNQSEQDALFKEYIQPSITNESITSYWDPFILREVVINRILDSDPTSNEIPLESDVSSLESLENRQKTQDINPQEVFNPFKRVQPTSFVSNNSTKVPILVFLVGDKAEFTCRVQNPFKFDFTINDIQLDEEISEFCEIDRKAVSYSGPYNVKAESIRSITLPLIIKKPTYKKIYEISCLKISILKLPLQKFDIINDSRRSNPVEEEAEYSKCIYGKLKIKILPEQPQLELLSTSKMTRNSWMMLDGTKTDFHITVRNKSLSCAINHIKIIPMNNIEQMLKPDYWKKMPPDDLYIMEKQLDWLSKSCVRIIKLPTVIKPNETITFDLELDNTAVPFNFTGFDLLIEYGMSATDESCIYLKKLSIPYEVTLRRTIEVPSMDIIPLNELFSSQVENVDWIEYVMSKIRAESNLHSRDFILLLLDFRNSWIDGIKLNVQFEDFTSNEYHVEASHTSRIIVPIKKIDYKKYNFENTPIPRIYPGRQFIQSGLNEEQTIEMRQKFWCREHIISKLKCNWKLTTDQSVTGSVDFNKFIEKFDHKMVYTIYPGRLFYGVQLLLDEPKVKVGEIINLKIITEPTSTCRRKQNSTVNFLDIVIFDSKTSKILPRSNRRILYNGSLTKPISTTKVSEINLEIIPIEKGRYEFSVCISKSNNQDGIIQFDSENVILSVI

Trs130 = biological target: B4; assay: single-particle EM

B1: Trs33 (natural protein, S. cerevisiae (endogenous in yeast), UniProt Q99394 1-268, looked up)
chain: MSSTHSNNVGHPQSSPQGPLTEQQRAQQQYQIFENSLPKVSQSVYQMLLNEMVPLAMGIERQISGDVISSDSNVTSENGNINNMIKRLKIEEHHTVDIIRSHNLIHELYKADEEEKEKVLARLRNIGFQIGLKLSELLIFSNNPNLKFKEMDLLLIMKFICRDVWKQIFGKQIDNLKTNHRGTFYLLDYDYRPIQSFSLEEDAKNEELKMIEPFLEIPVGIIRGVLSSLGYSSEEVICLASFIDRPTDRPKTAFPKGVSFHVQVTMPQ
- binding result [1]: binds

B2: Bet3 (natural protein, S. cerevisiae (endogenous in yeast), UniProt P36149 1-193, looked up)
chain: MVSTTQSRSLKAMGEEIWKNKTEKINTELFTLTYGSIVAQLCQDYERDFNKVNDHLYSMGYNIGCRLIEDFLARTALPRCENLVKTSEVLSKCAFKIFLNITPNITNWSHNKDTFSLILDENPLADFVELPMDAMKSLWYSNILCGVLKGSLEMVQLDCDVWFVSDILRGDSQTEIKVKLNRILKDEIPIGED
- binding result [1]: binds

B3: Trs20 (natural protein, S. cerevisiae (endogenous in yeast), UniProt P38334 1-175, looked up)
chain: MPQYFAIIGKKDNPVYEIEFTNAENPQGFPQDLKELNPFILHASLDIVEDLQWQINPTSQLNGNGGNGSNGGGGFLRSRAVNNTDNCYLGKVDHFYGLAITAYISYSGMKFVMIHGNSANSSVVIDDNNMRSFYQEVHELYVKTLMNPFYKITDPIRSPAFDSRVRTLARKHLSK
- binding result (Trs130): binds

Binder: B4
- binding result [1]: binds
